Assay: soluble on expression in E. coli; label from the status in PepcDB or PDB records

Sequence | soluble on expression in E. coli
MSLNAGAVKLDESMTPMQAMAAVAAECVDHIARNAAVLAEVDTLGVYRAGTPEHVHQLRVGVRRLRSAWRLFDGWIADPSETLAQGARTHFSAFGMARDQDVLADTIMPLLARAGMPALPAEAAPSNDNAQSLAADRAFQGWLLELLAWSLDVPAEAAPPALRKRLTGRLRRWHLKVIDEGLRFGALELEARHELRKRVKRLRYGLSFAESLLPAARLRTYRKQLARVQDLLGEINDLAVARDYYQAALQAHPQAWFAVGWIGARLDGLTPQAQEAFDQLAHAKPFWKEGHHHHHH | not soluble
MNYLKTSGIVIKEVNTGEADRIITIFSKNKGKISALAKGARRPKSHLVAGTQLLCYSEFVLFKGKDMYTVNSCDVIESFYDIRNDLERLTYAAHMMDIVNDVILENQPASRLLQLFLNSLYMLSKTDRSPLQIVRVFEIRLLSTMGYAPWVSSCIKCGSTVFDSMYFSFLKCGFLCSKCLENDKGALKISEGAAKALNYIVHSKMSNLFSFEVSESVLDELGKVSQRYMKERLEKNYTKLDFIKTLDRIKC | soluble
MSLPREKVVRVWDEREVVYSPKRWRILWEKREKALKIMELLKDFDPHVYGSVARGDVRRDSDIDIVIPYRVPSYLIELALGDLIQRRRIVMATPWHLIKGHIEIDEETTVTFFLVDPTDRELEFYKWGGMLDLWGVKTKQRVPGVNKKLILIIPTDKGHIEREVVGREAEVAKILGVSVDIVEERVKVLTRRDRIGRTGIYLDEEVPDWKSFEEFLKELADRDPNIRRRVRESLEGHHHHHH | not soluble
GMTESDRDYIQSIERGFAVLLAFDAQRPNPTLAELATEAGLSRPAVRRILLTLQKLGYVAGSGGRWSLTPRVLSIGQHYSESHALIEAAMPRLLEVAEKTQESASLGVLDGADVVYAARVPVRRIMSINVSVGTRVPAYATSMGRALLAWAPADVVERVVAESTFQKLGPETIGTAAELERELAKVREQGFALTSEELEKGLISLAAPVHDAGGTVVGVVACSTSSARNTPAQFREQAVPCVLAAAAALSADMGFAG | soluble
MKIPDLTNYEHLIGGLCGGVTSTVVCHPFDLLKIRFSANEGSSLRPQYSSYADAVRKIVRVEGVRGLYQGWTPSLIGASLSWGLYFQWYNSLRTKIYENFSTGSKLANNLISGCISGSAIMCITNPIWLTKTRLCLQYENQQSKKYAGMMDCLKKTVKQEGFFGLYRGFVTGVIGTTHGAVQIAAYSWIIDKRCQSQGLPKDSFLSQTDYVIASSTSKVLATTITFPYQVLRTRMQDHNTDSRGVWKTTLKTIHNEGIGGLWKGCLIANVRQLPAAVVTFLTYENVKRLVGMTKQI | not soluble
GPGSMSRTQTSSKSVPKNIAVYCRVRPPVPNEKGHTFQNISYDDSDSRAIAVARKSGTKALEKTYLFNRVFRPTATQKDVYETFAKGAVDAAFDGQHGVLFVYGQTGSGKTFTISNDEPNNEGVLQRSMRDIWNRIASDTANDYSCSVSYVQLYNEILTDLLDDAKGKVRIQMGSEGRGDVVMVSDSTGMAIEREVKDYKSTMACFQVGLARKEMASTSMNSTSSRSHTIFTLNIVKAKKVVAVTV | not soluble
MYFPAAIDTSLAAEDLGIWAPIDHQRIISLLTIGLGVLYHREKAISLEPLPETMLDEGKASPVPDISLRDNSASQTPIIIEVCHTNGLKGDLRKVIQLIDDGDYGIQEGFIYDYRAGTWVLYRSGGDGLTQSTSFSDILQLDLNQFL | not soluble
MVGAHQMKSEEQANMQLQQQAVLGLNWMQDSGEYKALAYQAYNAAKVAFDHAKVAKGKKKAVVADLDETMLDNSPYAGWQVQNNKPFDGKDWTRWVDARQSRAVPGAVEFNNYVNSHKGKVFYVTNRKDSSEKAGTIDDMKRLGFNGVEESAFYLKKDKSAKAARFAEIEKQGYEIVLYVGDNLDDFGNTVYGKLNADRRAFVDQNQGKFGKTFIMLPNANYGGWEGGLAEGYFKKDTQGQIKARLDAVQAWDGK | soluble
MTPRIEVAAPKEPITINMNVKIEHEIIIKADKDVEELLETRSDLFLEHHHHHH | not soluble
MGSDKIHHHHHHMENYQLRIAHLYGDLMNTYGDYGNVIAIKYYAKQIQVETDYHLISLGDSFKADDYDFVIFGGGQDYEESVTAKDLPSKSDEIKKYIENNDSLLAVCGGFQLLGTTMEFANGKIINGIGAMSHHTVNLNSSELFDNMRGKRLIGNIQIKNNESGETYHGFENHQGRTFLGKGEKALGTVVSGNGNNGDDKTEGVIYKQVYGTYFHGPILTRNGNLAKRILKNALLKRYPDIDWQAKLDGIPTESF | not soluble
MAHHHHHHMSTSYSVTTYMTTTYVNCEDVSGSDSEYSEYDLVNEQMQDFLLDSEDTSDGDADVEDILGFGAVFMGGLMPTRSMDAHQACAWRRTTKPNRRRIAKKSESCSSLSNAARLTASSSTTMLSDLDTVVREAVVTGGAAQRRGTRKQRRAMASGERRWLVPPLSAVSVESTDGGNDGRRQLPWFTVVFDLDETLVGARYGPIHLRPHVGELLRSLHRLPVEIIVWTAGTAHYVNPILHAIGQACGRRQWFHHIISRHKRWYRDTNVSVKDLRQLGRPLDRLVMVENNPISALPQPSLCVLLEDYLQPNAADESLLVLKGLLERLALQYERAARTSSATGTCEQASEEECPAQRHTRSPRNTLRDATATRTTALPSLELLVRDDAALQLVEFRMEDILKEDGVPMLQQAEMRELVGGADTLRCLCLCYTPPLLPSSTAVAPQGTAALMSCVSMAMRSYGSVNPLRPL | not soluble
MKKKTTLSEEDQALFRQLMAGTRKIKQDTIVHRPQRKKISEVPVKRLIQEQADASHYFSDEFQPLLNTEGPVKYVRPDVSHFEAKKLRRGDYSPELFLDLHGLTQLQAKQELGALIAACRREHVFCACVMHGHGKHILKQQTPLWLAQHPHVMAFHQAPKEYGGDAALLVLIEVEEWLPPELP | not soluble
MGHHHHHHSHMIGKCTHVVDCRETMGMGEGGGIAQRGTFAQCGSEVLAVAMSPGRRHITKPVCEITFALREANIMTSTIVLNAGAGVPQDAPSAGAGSLFGLTPAEVEQMKRHKLLVVHLGGVKNHITYKARLILRNVDRPCIIICEYPVDFEDFAKIGVRTRAVMPDEPKTKGTIVDIVSGVIRGETCPQEKLDEIIRKVKLALGGA | soluble
MGSDKIHHHHHHMNINSETKYCQTCGIPLDIDYTNLKADQNEEYCDYCLKNGVKLYDFSMDYLIYLWGLFPEEYYKEVGIRHTSSELREIMSRRLPEIKRWKQKINTAHIQYELVIRVQEYINCHLFDDLDSEKLSQIVCISKYHFRRLFKAVCGDSLGNYIQRLRLEYIAFKLISTNVSVSEILSQINYQNKHTLSRAFKNYFNCSIPEFRKRHSNACSEGKNPIQIEPSIERVPHTRIAYLKLERTHHVSHSFSVLWKQVLQFSESYGLLSKGCKYVSLTLDYPFITLEEQSRFMVGVTLPQSFKIPKGFGVYEVPAGEYAIFRFKGLYHELNRVYRYIYLDWLPANDYSLREPFTFETYINTPEKTPVSELITDIYIPVKKKEI | not soluble
MGHHHHHHSHVLPIYAYGHAVGKSVTGGYVYRGCESPNLNGLYIFGDFMSGRLMALQEDRKNKKWKKQDLCLGSTTSCAFPGLISTHSKFIISFAEDEAGELYFLATSYPSAYAPRGSIYKFVDPSRRAPPGKCKYKPVPVRTKSKRIPFRPLAKTVLDLLKEQSEKAARKSSSATLASGPAQGLSEKGSSKKLASPTSSKNTLRGPGTKKKARVGPHVRQGKRRKSLKSHSGRMRPSAEQKRAGRSLP | not soluble
MNKQIDLPIADVQGSLDTRHIAIDRVGIKAIRHPVVVADKGGGSQHTVAQFNMYVNLPHNFKGTHMSRFVEILNSHEREISVESFEEILRSMVSRLESDSGHIEMAFPYFINKSAPVSGVKSLLDYEVTFIGEIKHGNQYSFTMKVIVPVTSLCPCSKKISDYGAHNQRSHVTISVRTNSFIWIEDIIRIAEEQASCELYGLLKRPDEKYVTERAYNNPKFVEDIVRDVAEVLNHDDRIDAYIVESENFESIHNHSAYALIERDKRIR | soluble
MSKFSLKLGSKTLKKNISKKTKKKNSLQKANLFDWDDAETASLSHKPQSKIKIQSIDKFDLDEESSSKKKLVIKLSENADTKKNDAPLVEYVTEKEYNEVPVEEFGDALLRGMGWESDSEQDSKGDKTQSRNKDVSNVSQIHPDGLGIGAKLNKAINVEEASFMPVVKIDKITGTKVDDDKKNKS | soluble
MANLKSLPVGDKAPEVVHMVIEVPRGSGNKYEYDPDLGAIKLDRVLPGAQFYPGDYGFIPSTLAEDGDPLDGLVLSTYPLLPGVVVEVRVVGLLLMEDEKGGDAKVIGVVAEDQRLDHIQDIGDVPEGVKQEIQHFFETYKALEAKKGKWVKVTGWRDRKAALEEVRACIARYKG | soluble
RVSNEFPPREYIATVYNRICNYLQIGEGEGFERSFDFDIDAFCRNFRMFPTQVLAAIRILDVAGIWEYREEKTRSRLTIQVQRDELYRMRSEQASDSVLTALMRTYDGLFADYVSIVESELAEKTGLSVDQVYQQLLLLNKAGIVNYIPQKNLPRIYFLTRREDAELLQIPRAAYEDRRDRLKARIDQSLRYIEEENTCRSRMLLAYFGEEQSHNCKLCDVCLRRKDGELHHHEVDDLLHFLEQRLTEETPYVLIADICRELHHHPDVVLKAIRFVMKESWQYSTDGDTVFLTHKLPGGLNL | not soluble
AIASCGKPQETYSTSSILTREQFEIQHQEEDTIGEQVIFIDGVAYNSRGFRVCGAPNQRGGFCARFGQCPFHKDKVTTFKMSEETVSEFPRQLLTESCNLLQNNERKFKNAWKLDEHHRFLVALKKFGHGNWRQIADYVETRSASQCQSHAQKYYLRKRKLASNANLKRSIFDLIDEDTLSVEIGEEDTWNIIQKCPSKEAQGSVRSRSKTLQRMSTDSSVESYPIRELSTVDSELSTLQTYKQASFFIRIFRNGVFSHGVDLELPNSLASFFIKAAQLLDMSVATKAYTRSGFEISSLHEVCPGDILWISSGEEFIFPSPVQYIET | soluble
MGSDKIHHHHHHMNIEKTRFCINRKIAPGLSIEAFFRLVKRLEFNKVELRNDMPSGSVTDDLNYNQVRNLAEKYGLEIVTINAVYPFNQLTEEVVKKTEGLLRDAQGVGARALVLCPLNDGTIVPPEVTVEAIKRLSDLFARYDIQGLVEPLGFRVSSLRSAVWAQQLIREAGSPFKVLLDTFHHHLYEEAEKEFASRIDISAIGLVHLSGVEDTRPTEALADEQRIMLSEKDVMQNYQQVQRLENMGYRGIYAFEPFSSQLASWSEAEIEEQINRSVSLLLQ | not soluble
MSLERAKNSDLLRESLTTEELLLISNFAKKKGADSVFFKIIEKLDLKFRLSSFGLEVKNFLMKSKLTGDELTKLTPEILKNKTYENKKFRAYNIHIPSAKTFIGRANSYLDYISKIKDKLVGLGFQEFDGPLVETEFFNNDALFMPQFHPSRDIKDVYYISDPSMQESLPEPYFSNVKLAHETGYATGSRGWRYSFSEDLSKRLVLRTHGTVLSAKQLINAKNPSRYFGVIRCFRYDQVDATHGVDFYQTEGIVIEDGVSIKTLLGLLEIFAKELAGATEIKYVPAYFPFTEPSIEIHVKHPVLGWFELGGSGIFRPEVTKPLGIDLPVIAWGIGIDRMALMHLGLNDLRDLFTYDIGDVILRRGKIDAKVRNEGHHHHHH | not soluble
MNSDEVQLIKKTWEIPVATPTDSGAAILTQFFNRFPSNLEKFPFRDVPLEELSGNARFRAHAGRIIRVFDESIQVLGQDGDLEKLDEIWTKIAVSHIPRTVSKESYNQLKGVILDVLTAASSLDESQAATWAKLVDHVYGIIFKAIDDDGNAK | soluble

From the DeepSol protein solubility set
